Data from patent publication US20250326791A1 (published 2025).
Bridges are numbered along the chain shown (N, C = ends). Where no end group is shown, it is not given here. [ ]: non-standard residue; d: D form.

What was measured:
Assay in all cases: protein binding radioassay
[1] = target: δ opioid receptor (DOR)
[2] = target: κ opioid receptor (KOR)
[3] = target: µ opioid receptor (MOR)

Row | Binder | Kd [1] | Kd [2] | Kd [3]
1 | Y[dA]GF[dL]KCFRYPNGVLACT (disulfide 7-17, 18 residues) [DADLE-OL II] | 275 nM | 1080 nM | 123 nM
2 | YASPKCFRY[dA]GF[dL]LACT (disulfide 6-16) [DADLE-OL] | 64 nM | > 10000 nM | 3540 nM
